According to PMC8929358:
Residue numbers refer to the chain shown, from its start. Names may count otherwise.

B1: UGT 1A9 (Homo sapiens) (protein)
chain: GKLLVVPMDGSHWFTMRSVVEKLILRGHEVVVVMPEVSWQLGRSLNCTVKTYSTSYTLEDLDREFKAFAHAQWKAQVRSIYSLLMGSYNDIFDLFFSNCRSLFKDKKLVEYLKESSFDAVFLDPFDNCGLIVAKYFSLPSVVFARGILCHYLEEGAQCPAPLSYVPRILLGFSDAMTFKERVRNHIMHLEEHLLCHRFFKNALEIASEILQTPVTEYDLYSHTSIWLLRTDFVLDYPKPVMPNMIFIGGINCHQGKPLPMEFEAYINASGEHGIVVFSLGSMVSEIPEKKAMAIADALGKIPQTVLWRYTGTRPSNLANNTILVKWLPQNDLLGHPMTRAFITHAGSHGVYESICNGVPMVMMPLFGDQMDNAKRMETKGAGVTLNVLEMTSEDLENALKAVINDKSYKENIMRLSSLHKDRPVEPLDLAVFWVEFVMRHKGAPHLRPAAHDLTWYQYHSLDVIGFLLAVVLTVAFITFKCCAYGYRKCLGKKGRVKKAHKSKTH
B2: UGT 1A3 (Homo sapiens) (protein)
chain: GKVLVVPIDGSHWLSMREVLRELHARGHQAVVLTPEVNMHIKEENFFTLTTYAISWTQDEFDRHVLGHTQLYFETEHFLKKFFRSMAMLNNMSLVYHRSCVELLHNEALIRHLNATSFDVVLTDPVNLCAAVLAKYLSIPTVFFLRNIPCDLDFKGTQCPNPSSYIPRLLTTNSDHMTFMQRVKNMLYPLALSYICHAFSAPYASLASELFQREVSVVDILSHASVWLFRGDFVMDYPRPIMPNMVFIGGINCANRKPLSQEFEAYINASGEHGIVVFSLGSMVSEIPEKKAMAIADALGKIPQTVLWRYTGTRPSNLANNTILVKWLPQNDLLGHPMTRAFITHAGSHGVYESICNGVPMVMMPLFGDQMDNAKRMETKGAGVTLNVLEMTSEDLENALKAVINDKSYKENIMRLSSLHKDRPVEPLDLAVFWVEFVMRHKGAPHLRPAAHDLTWYQYHSLDVIGFLLAVVLTVAFITFKCCAYGYRKCLGKKGRVKKAHKSKTH
B3: SULT1A1*1 (Homo sapiens) (protein)
chain: MELIQDTSRPPLEYVKGVPLIKYFAEALGPLQSFQARPDDLLISTYPKSGTTWVSQILDMIYQGGDLEKCHRAPIFMRVPFLEFKAPGIPSGMETLKDTPAPRLLKTHLPLALLPQTLLDQKVKVVYVARNAKDVAVSYYHFYHMAKVHPEPGTWDSFLEKFMVGEVSYGSWYQHVQEWWELSRTHPVLYLFYEDMKENPKREIQKILEFVGRSLPEETVDFVVQHTSFKEMKKNPMTNYTTVPQEFMDHSISPFMRKGMAGDWKTTFTVAQNERFDADYAEKMAGCSLSFRSEL
B4: SULT1A1*2 (Homo sapiens; R213H) (protein)
chain: B3 chain with R213H
B5: UGT 1A1 (Homo sapiens) (protein)
chain: HAGKILLIPVDGSHWLSMLGAIQQLQQRGHEIVVLAPDASLYIRDGAFYTLKTYPVPFQREDVKESFVSLGHNVFENDSFLQRVIKTYKKIKKDSAMLLSGCSHLLHNKELMASLAESSFDVMLTDPFLPCSPIVAQYLSLPTVFFLHALPCSLEFEATQCPNPFSYVPRPLSSHSDHMTFLQRVKNMLIAFSQNFLCDVVYSPYATLASEFLQREVTVQDLLSSASVWLFRSDFVKDYPRPIMPNMVFVGGINCLHQNPLSQEFEAYINASGEHGIVVFSLGSMVSEIPEKKAMAIADALGKIPQTVLWRYTGTRPSNLANNTILVKWLPQNDLLGHPMTRAFITHAGSHGVYESICNGVPMVMMPLFGDQMDNAKRMETKGAGVTLNVLEMTSEDLENALKAVINDKSYKENIMRLSSLHKDRPVEPLDLAVFWVEFVMRHKGAPHLRPAAHDLTWYQYHSLDVIGFLLAVVLTVAFITFKCCAYGYRKCLGKKGRVKKAHKSKTH
B6: UGT 1A10 (Homo sapiens) (protein)
chain: GKLLVVPMDGSHWFTMQSVVEKLILRGHEVVVVMPEVSWQLERSLNCTVKTYSTSYTLEDQNREFMVFAHAQWKAQAQSIFSLLMSSSSGFLDLFFSHCRSLFNDRKLVEYLKESSFDAVFLDPFDTCGLIVAKYFSLPSVVFTRGIFCHHLEEGAQCPAPLSYVPNDLLGFSDAMTFKERVWNHIVHLEDHLFCQYLFRNALEIASEILQTPVTAYDLYSHTSIWLLRTDFVLDYPKPVMPNMIFIGGINCHQGKPLPMEFEAYINASGEHGIVVFSLGSMVSEIPEKKAMAIADALGKIPQTVLWRYTGTRPSNLANNTILVKWLPQNDLLGHPMTRAFITHAGSHGVYESICNGVPMVMMPLFGDQMDNAKRMETKGAGVTLNVLEMTSEDLENALKAVINDKSYKENIMRLSSLHKDRPVEPLDLAVFWVEFVMRHKGAPHLRPAAHDLTWYQYHSLDVIGFLLAVVLTVAFITFKCCAYGYRKCLGKKGRVKKAHKSKTH
B7: UGT 1A8 (Homo sapiens) (protein)
chain: GKLLVVPMDGSHWFTMQSVVEKLILRGHEVVVVMPEVSWQLGKSLNCTVKTYSTSYTLEDLDREFMDFADAQWKAQVRSLFSLFLSSSNGFFNLFFSHCRSLFNDRKLVEYLKESSFDAVFLDPFDACGLIVAKYFSLPSVVFARGIACHYLEEGAQCPAPLSYVPRILLGFSDAMTFKERVRNHIMHLEEHLFCQYFSKNALEIASEILQTPVTAYDLYSHTSIWLLRTDFVLDYPKPVMPNMIFIGGINCHQGKPLPMEFEAYINASGEHGIVVFSLGSMVSEIPEKKAMAIADALGKIPQTVLWRYTGTRPSNLANNTILVKWLPQNDLLGHPMTRAFITHAGSHGVYESICNGVPMVMMPLFGDQMDNAKRMETKGAGVTLNVLEMTSEDLENALKAVINDKSYKENIMRLSSLHKDRPVEPLDLAVFWVEFVMRHKGAPHLRPAAHDLTWYQYHSLDVIGFLLAVVLTVAFITFKCCAYGYRKCLGKKGRVKKAHKSKTH
B8: UGT 2B7 (Homo sapiens) (protein)
chain: GKVLVWAAEYSHWMNIKTILDELIQRGHEVTVLASSASILFDPNNSSALKIEIYPTSLTKTELENFIMQQIKRWSDLPKDTFWLYFSQVQEIMSIFGDITRKFCKDVVSNKKFMKKVQESRFDVIFADAIFPCSELLAELFNIPFVYSLSFSPGYTFEKHSGGFIFPPSYVPVVMSELTDQMTFMERVKNMIYVLYFDFWFEIFDMKKWDQFYSEVLGRPTTLSETMGKADVWLIRNSWNFQFPYPLLPNVDFVGGLHCKPAKPLPKEMEDFVQSSGENGVVVFSLGSMVSNMTEERANVIASALAQIPQKVLWRFDGNKPDTLGLNTRLYKWIPQNDLLGHPKTRAFITHGGANGIYEAIYHGIPMVGIPLFADQPDNIAHMKARGAAVRVDFNTMSSTDLLNALKRVINDPSYKENVMKLSRIQHDQPVKPLDRAVFWIEFVMRHKGAKHLRVAAHDLTWFQYHSLDVIGFLLVCVATVIFIVTKCCLFCFWKFARKAKKGKND

Key:
[1] = substrate: Cc1c(Cl)c(C)[n+]([O-])c(Cl)c1-c1noc(-c2cc(O)c(O)c([N+](=O)[O-])c2)n1; experiment: cells, lysate or membranes named; type: in vitro ADME, human; details: pH 7.5; 37.0 °C
not read = substrate: Cc1c(Cl)c(C)[n+]([O-])c(Cl)c1-c1noc(-c2cc(O)c(O)c([N+](=O)[O-])c2)n1; experiment: not read; type: in vitro ADME, human; details: other: substrate inhibition fit; pH 7.4; 37.0 °C

Protein | Km [1] | Km (not read)
B1 | 13.7 µM | 
B2 | 213 µM | 
B3 |  | 18.7 µM
B4 |  | 27.3 µM
B5 | 18 µM | 
B6 | 64.9 ± 23.8 µM | 
B7 | 34.8 ± 9.6 µM | 
B8 | 20.6 µM | 
